The test deals with CD40 (from R&D systems) (UniProt P25942).

These results are taken from patent US9789176.

For orientation: Kd means a measure of binding affinity in units of concentration.

Chain of UniProt P25942 (P25942 21-193 limits assumed): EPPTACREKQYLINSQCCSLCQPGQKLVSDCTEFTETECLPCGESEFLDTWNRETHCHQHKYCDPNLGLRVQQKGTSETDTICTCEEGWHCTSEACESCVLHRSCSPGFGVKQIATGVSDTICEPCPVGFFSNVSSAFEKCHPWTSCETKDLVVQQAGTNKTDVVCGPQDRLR

Regarding “toxic shock syndrome toxin-1 (TSST-1), native / wild-type (from UniProt P06886 41-234) (other; other documents disagree on this pair)”, the Kd stood at 2.7 µM.
